Assay results taken from patent US20100247549A1 (US Dept. of Health and Human Services, published 2010).

Experiments:
[1] = biological target: Envelope glycoprotein (E) of parental DENV-4 (C6/36) (dengue virus type 4, UniProt P09866 280-774)
[2] = biological target: purified human C1q (human, UniProt P02745 23-245; P02746 28-253; P02747 29-245); assay: ELISA, IgG titrated against purified human C1q
[3] = biological target: T1, human Fcγ R IIB (human, UniProt P31994 46-217); assay: ELISA, IgG titrated against human Fcγ R IIB
T1 sequence: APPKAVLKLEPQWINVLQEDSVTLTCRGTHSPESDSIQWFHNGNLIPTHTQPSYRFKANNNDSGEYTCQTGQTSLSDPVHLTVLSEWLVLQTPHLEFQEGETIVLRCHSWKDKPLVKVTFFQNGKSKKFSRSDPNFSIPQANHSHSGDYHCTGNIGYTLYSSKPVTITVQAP

[4] = biological target: human Fcγ R I (human, UniProt P12314 16-288); assay: ELISA, IgG titrated against human Fcγ R I
[5] = biological target: human Fcγ R IIIB (human, UniProt O75015 17-200); assay: ELISA, IgG titrated against human Fcγ R IIIB
Sequence of human Fcγ R IIIB (O75015 17-200 limits assumed): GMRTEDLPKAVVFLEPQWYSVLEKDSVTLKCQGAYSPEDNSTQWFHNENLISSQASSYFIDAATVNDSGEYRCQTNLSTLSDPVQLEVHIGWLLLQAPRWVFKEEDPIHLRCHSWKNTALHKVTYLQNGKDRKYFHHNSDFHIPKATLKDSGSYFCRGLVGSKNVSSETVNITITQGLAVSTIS

Sequence of purified human C1q (P02745 23-245 limits assumed, chain 1 of 3): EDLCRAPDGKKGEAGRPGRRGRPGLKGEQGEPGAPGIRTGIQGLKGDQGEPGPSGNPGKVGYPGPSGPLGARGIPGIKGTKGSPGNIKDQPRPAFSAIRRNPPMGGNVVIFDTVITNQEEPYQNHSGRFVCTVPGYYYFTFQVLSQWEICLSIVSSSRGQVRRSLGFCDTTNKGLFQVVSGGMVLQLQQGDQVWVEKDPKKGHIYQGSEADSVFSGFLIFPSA
Sequence of purified human C1q (P02746 28-253 limits assumed, chain 2 of 3): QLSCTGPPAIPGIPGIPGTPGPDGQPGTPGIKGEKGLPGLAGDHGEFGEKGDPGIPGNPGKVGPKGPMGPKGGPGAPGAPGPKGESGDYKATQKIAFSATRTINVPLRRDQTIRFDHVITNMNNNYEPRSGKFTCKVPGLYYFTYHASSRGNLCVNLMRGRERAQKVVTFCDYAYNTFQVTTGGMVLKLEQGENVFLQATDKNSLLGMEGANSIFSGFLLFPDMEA
Sequence of purified human C1q (P02747 29-245 limits assumed, chain 3 of 3): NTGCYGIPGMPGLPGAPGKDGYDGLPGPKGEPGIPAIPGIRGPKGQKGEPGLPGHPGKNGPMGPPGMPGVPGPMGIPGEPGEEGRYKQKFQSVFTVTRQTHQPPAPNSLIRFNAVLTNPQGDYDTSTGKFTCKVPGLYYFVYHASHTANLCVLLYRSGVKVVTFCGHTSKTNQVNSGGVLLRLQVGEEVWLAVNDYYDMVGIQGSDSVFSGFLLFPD
Sequence of human Fcγ R I (P12314 16-288 limits assumed): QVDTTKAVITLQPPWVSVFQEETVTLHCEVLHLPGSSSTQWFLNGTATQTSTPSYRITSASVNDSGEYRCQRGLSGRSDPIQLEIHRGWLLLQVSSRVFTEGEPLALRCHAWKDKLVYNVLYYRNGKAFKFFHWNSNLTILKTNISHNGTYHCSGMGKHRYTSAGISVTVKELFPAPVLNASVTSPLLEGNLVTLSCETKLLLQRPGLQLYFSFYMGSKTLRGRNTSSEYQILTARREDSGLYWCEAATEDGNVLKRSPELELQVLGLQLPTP
Sequence of Envelope glycoprotein (E) of parental DENV-4 (C6/36) (P09866 280-774 limits assumed): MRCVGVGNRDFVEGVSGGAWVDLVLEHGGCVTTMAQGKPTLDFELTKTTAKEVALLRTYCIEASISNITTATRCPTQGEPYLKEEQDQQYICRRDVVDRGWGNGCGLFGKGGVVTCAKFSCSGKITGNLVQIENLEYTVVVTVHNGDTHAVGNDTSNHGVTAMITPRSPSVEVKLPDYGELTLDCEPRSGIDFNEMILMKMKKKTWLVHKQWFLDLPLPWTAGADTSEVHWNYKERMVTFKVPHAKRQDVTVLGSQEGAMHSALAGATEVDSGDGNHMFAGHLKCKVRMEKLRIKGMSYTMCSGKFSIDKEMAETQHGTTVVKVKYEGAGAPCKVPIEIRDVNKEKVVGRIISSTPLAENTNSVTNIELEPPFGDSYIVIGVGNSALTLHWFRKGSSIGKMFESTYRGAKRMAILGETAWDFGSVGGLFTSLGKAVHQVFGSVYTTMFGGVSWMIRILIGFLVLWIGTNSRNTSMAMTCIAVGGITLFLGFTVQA

Binder | Kd [1] [nM] | binding result [2] | binding result [3] | EC50 (read off the curve) [4] [µg/mL] | binding result [5]
Humanized IgG 5H2 ΔD (IgG1 5H2 with a 9-amino-acid deletion, positions 231-239, at the N-terminus of the CH2 domain) (antibody, also called IgG1 5H2 ΔD; IgG 5H2D; copies: 2 + 2) heavy: EVQLLESGPGLVKPSETLSLTCTVSGGSISDFYWSWLRQSPGKGLEWIGYAHSRVSAYYNPSLKSRVTISVDTSKNQLSLRLSAVTAADTALYYCARQGTGTTGVSEDFFDLWGQGTKVIVSLASTKGPSVFPLAPSSKSTSGGTAALGCLVKDYFPEPVTVSWNSGALTSGVHTFPAVLQSSGLYSLSSVVTVPSSSLGTQTYICNVDHKPSNTKVDKKVEPKSCDKTHTCPPCPVFLFPPKPKDTLMISRTPEVTCVVVDVSHEDPEVKFNWYVDGVEVHNAKTKPREEQYNSTYRVVSVLTVLHQDWLNGKEYKCKVSNKALPAPIEKTISKAKGQPREPQVYTLPPSRDELTKNQVSLTCLVKGFYPSDIAVEWESNGQPENNYKTTPPVLDSDGSFFLYSKLTVDKSRWQQGNVFSCSVMHEALHNHYTQKSLSLSPGK light: not shown | 0.14 | no binding |  |  | 
Humanized IgG 1A5 (IgG1), full-length (antibody, also called IgG 1A5 WT; MAb IgG 1A5; copies: 2 + 2) heavy: not shown light: ELQMTQSPSSVSASVGDTVTIACRASQSITNYLSWYQQKPGKAPKLLIYHASTLQSGIPSRFSGSGSGTDFTLTISSLQPDDFATYYCHYGYGTHTFGQGTKLEIKRTVAAPSVFIFPPSDEQLKSGTASVVCLLNNFYPREAKVQWKVDNALQSGNSQESVTEQDSKDNTYSLSSTLTLSKADYEKHKVYACEVTHQGLSSPVTKSFN |  | binds | binds | ~0.7 | binds
IgG 1A5 ΔA (replacement amino acids at 327, 330 and 331 from the Fc of IgG4) (antibody) chain 1: EVQLLESGGGLVQPGGSRRLSCAASGFTISDNVMHWVRQAPGKGLEWVALIYSADTTHYADSVKGRFTISRDNSKNTLYLQMDSLRPEDTAVYYCAREYCTGDTCFAHFDYWGQGTLVSVSSASTKGPSVFPLAPSSKSTSGGTAALGCLVKDYFPEPVTVSWNSGALTSGVHTFPAVLQSSGLYSLSSVVTVPSSSLGTQTYICNVDHKPSNTKVDKKVEPKSCDKTHTCPPCPAPELLGGPSVFLFPPKPKDTLMISRTPEVTCVVVDVSHEDPEVKFNWYVDGVEVHNAKTKPREEQYNSTYRVVSVLTVLHQDWLNGKEYKCKVSNKGLPSSIEKTISKAKGQPREPQVYTLPPSRDELTKNQVSLTCLVKGFYPSDIAVEWESNGQPENNYKTTPPVLDSDGSFFLYSKLTVDKSRWQQGNVFSCSVMHEALHNHYTQKSLSLSPGK chain 2: ELQMTQSPSSVSASVGDTVTIACRASQSITNYLSWYQQKPGKAPKLLIYHASTLQSGIPSRFSGSGSGTDFTLTISSLQPDDFATYYCHYGYGTHTFGQGTKLEIKRTVAAPSVFIFPPSDEQLKSGTASVVCLLNNFYPREAKVQWKVDNALQSGNSQESVTEQDSKDNTYSLSSTLTLSKADYEKHKVYACEVTHQGLSSPVTKSFN |  |  |  | ~3 | 
IgG 1A5 ΔD (IgG 1A5 with the 9-amino-acid deletion, amino acids 231-239, in the CH2 domain) (antibody, also called variant ΔD; copies: 2 + 2) heavy: EVQLLESGGGLVQPGGSRRLSCAASGFTISDNVMHWVRQAPGKGLEWVALIYSADTTHYADSVKGRFTISRDNSKNTLYLQMDSLRPEDTAVYYCAREYCTGDTCFAHFDYWGQGTLVSVSSASTKGPSVFPLAPSSKSTSGGTAALGCLVKDYFPEPVTVSWNSGALTSGVHTFPAVLQSSGLYSLSSVVTVPSSSLGTQTYICNVDHKPSNTKVDKKVEPKSCDKTHTCPPCPVFLFPPKPKDTLMISRTPEVTCVVVDVSHEDPEVKFNWYVDGVEVHNAKTKPREEQYNSTYRVVSVLTVLHQDWLNGKEYKCKVSNKALPAPIEKTISKAKGQPREPQVYTLPPSRDELTKNQVSLTCLVKGFYPSDIAVEWESNGQPENNYKTTPPVLDSDGSFFLYSKLTVDKSRWQQGNVFSCSVMHEALHNHYTQKSLSLSPGK light: ELQMTQSPSSVSASVGDTVTIACRASQSITNYLSWYQQKPGKAPKLLIYHASTLQSGIPSRFSGSGSGTDFTLTISSLQPDDFATYYCHYGYGTHTFGQGTKLEIKRTVAAPSVFIFPPSDEQLKSGTASVVCLLNNFYPREAKVQWKVDNALQSGNSQESVTEQDSKDNTYSLSSTLTLSKADYEKHKVYACEVTHQGLSSPVTKSFN |  | no binding |  |  | 
Chimpanzee antibody Fab 5H2 (Fab, V domains shown) VH: EVQLLESGPGLVKPSETLSLTCTVSGGSISDFYWSWLRQSPGKGLEWIGYAHSRVSAYYNPSLKSRVTISVDTSKNQLSLRLSAVTAADTALYYCARQGTGTTGVSEDPFDLWGQGTKVIVSL VL: ELQMTQSPSSLSASVGDRVTITCRASQDISIRLNWYQQKPGKAPKLLIYDASTLESGVPSRFSGSGSGTDFTLTISSLQPEDFATYYCQQFNSYPLTFGGGTKVEIKR | 0.21 |  |  |  | 
